According to paper PMC8072984, “Engineering of Saposin C Protein Chimeras for Enhanced Cytotoxicity and Optimized Liposome Binding Capability” (Pharmaceutics, 2021):

Biological target: T1, Human Bcl-xL-ΔTM (native amino acid sequence without the transmembrane domain) (human)
T1 construct: ~24.5 kDa; Unlabeled in the NMR titration; source: cloned into pET21a; not shown: His6, N-terminal, kept
Experiment: NMR titration; [1H-15N]-SOFAST-HMQC at 298 K, 600 MHz; 15N-labelled chimera at 100 µM mixed with unlabeled Bcl-xL-ΔTM (stock 900 µM, pH 6.8) at chimera:Bcl-xL molar ratios 1:0, 1:0.5, 1:1, 1:2; 10% D2O; slow exchange, the upper limit of KD estimated from the chemical shift difference assuming diffusion-controlled kon
Settings: both partners purified

- Kd: < 49 nM
- koff: < 49 s⁻¹
B1: sapC-PUMA chimera (saposin C linked to the BH3 domain of PUMA) (other)
chain: SDVYCEVCEFLVKEVTKLIDNNKTEKEILDAFDKMCSKLPKSLSEECQEVVDTYGSSILSILLEEVSPELVCSMLHLCSGGGGEEQWAREIGAQLRRMADDLNAQYER
modifications: Three disulfide bonds in the sapC part. Chimera numbering of sapC + 307 = P07602 numbering (S4-G83 = 311-390). Vector residues 1-3 (letters only in Figure 2) and the C-terminal thrombin-site remnant …
